Laboratory results published in patent publication US20230279126A1 (published 2023).

B1: mIL23R VHH26 (VHH)
VHH: QVQLQESGGGSVQAGGSLRLSCAASGYTFCMAWFRQAPGKEREGVARFYTRDGYTYYSDSVKGRFTISQNNAKNTLYLQMNSLKSEDTAMYYCAADLTRCSSNKNDFRYWGQGTQVTVSS
notes: Phagemid clone with his-tag, periplasmic extract
B2: mIL23R VHH24 (VHH)
VHH: QVQLQESGGGSVQAGGSLRLSCAVSGYTFCMAWFRQAPGKEREGVARFYTRDGYTYYSGSVKGRFTISQNNAKNTLYLQMNSLKSEDTAMYYCAADLTRCSSNKNDFRYWGQGTQVTVSS
notes: as for B1
B3: mIL23R VHH5 (VHH)
VHH: QVQLQESGGGSVQAGGSLRLSCAASGYTFCMAWFRQAPGKEREGVARFYTRDGYTYYSDSVKGRFTISQNNAKNTLYLQMNSLKSEDTAMYYCAADLARCSSNKNDFRYWGQGTQVTVSS
notes: as for B1
B4: mIL23R VHH43 (VHH)
VHH: QVQLQESGGGSVQAGGSLRLSCAASGYTFCMAWFRQAPGKEREGVARFYTRDGYTYYSDSVKGRFTISQDNAKNTLYLQMNSLKSEDTAMYYCAADLTRCSSNKNDFRYWGQGTQVTVSS
notes: as for B1
B5: mIL23R VHH22 (VHH)
VHH: QVQLQESGGGSVQAGGSLRLSCAASGYTFCMAWFRQAPGKEREGVARFYTRDSYTYYSDSVKGRFTISQNNAKNTLYLQMNSLKSEDTAMYYCAADLTRCSSNKNDFRYWGQGTQVTVSS
notes: as for B1
B6: mIL23R VHH3 (VHH)
VHH: QVQLQESGGGSVQAGGSLRLSCTASVNTYCEYNMSWYRQAPGKEREFVSGVDSDGSTRYSESVKGRFTISQDNAKNTMYLQMNGLKPEDTAMYYCKTYVCTFCSGNSCYYEYKYYYEGQGTQVTVSS
notes: as for B1
B7: hIL12Rb1_VHH10 (VHH)
VHH: QVQLQESGGGSVQAGGSLRLSCAVSGYDYCGYDVRWYRQAPGKEREFVSGIDSDGSTSYADSVKGRFTISQDNAENTSYLHMFSLKPEDTAMYYCKTESPAGESAWCRNFRGMDYWGKGTQVTVSS
notes: as for B1
B8: hIL12Rb1_VHH7 (VHH)
VHH: QVQLQESGGGSVQAGGSLRLSCAVSGYDYCGYDVRWYRRAPGKEREFVSGIDSDGSTSYADSVKGRFTISQDNAENTSYLHMFSLKPEDTAMYYCKTESPAGESAWCRNFRGMDYWGKGTQVTVSS
notes: as for B1
B9: hIL12Rb1_VHH15 (VHH)
VHH: QVQLQESGGGSVQAGGSLRLSCAVSGYDYCGYDVRWYRQAPGKEREFVSGINSDGSTSYADSVKGRFTISQDNAENTSYLHMFSLKPEDTAMYYCKTESPAGESAWCRNFRGMDYWGKGTQVTVSS
notes: as for B1
B10: hIL12Rb1_VHH14 (VHH)
VHH: QVQLQESGGGSVQAGGSLRLSCAVSGYDYCGYDVRWYRRAPGKEREFVSGIDSDGSTSYADSVKGRFTISQDNAENTSYLHMFSLKPEDTAMYYCKTESPAGESAWCRNFRGMDYWGKGTQVTVSS
notes: as for B1
B11: hIL12Rb1_VHH19 (VHH)
VHH: QVQLQESGGGSVQAGGSLRLSCAVSGYDYCGYDVRWYRQAPGKEREFVSGINSDGSTSYADSVKGRFTISQDNAENTSYLHMFSLKPEDTAMYYCKTEGPAGESAWCRNFRGMDYWGKGTQVTVSS
notes: as for B1
B12: mIL23R VHH6 (VHH)
VHH: QVQLQESGGGSVQAGGSLRLSCAASGYTSGNYWMGWFRQAPGKEREGVATLWTGGASTFYGDSVKGRFTISRDNFKNTLYLQMNSLKVEDTAMYYCAADPALRLGANILRPAEYKYWGQGTQVTVSS
notes: as for B1
B13: hIL12Rb1_VHH1 (VHH)
VHH: QVQLQESGGGSVQAGGSLRLSCVASGYGYCGYDMSWYRQAPGKEREFVALITSDRSISYEDSVKARFIISRDNAANTGYLDMTRLTPDDTAIYYCKTSAAARESSWCRSRYRVASWGQGTQVTVSS
notes: as for B1
B14: mIL23R VHH18 (VHH)
VHH: QVQLQESGGGLVQPGGSLRLSCAASGFTFRLTAMRWVRQAPGKGLEWVSGIDSRGSTIYADSVKGRFTISKDNAKNTLYLQLNSLKTEDTAMYYCAQGVYGDTYSGSQGTQVTVSS
notes: as for B1
B15: mIL23R VHH19 (VHH)
VHH: QVQLQESGGGLVQPGGSLRLSCAASGFTFRLSAMRWVRQAPGKGLEWVSGIDSRGSTIYADSVKGRFTISKDNAKNTLYLQLNSLKTEDTAMYYCAQGVYGDTYSGSQGTQVTVSS
notes: as for B1
B16: mIL23R VHH13 (VHH)
VHH: QVQLQESGGGLVQPGGSLRLSCATSGFTFRLAAMRWVRQAPGKGLEWVSGIDSRGSTIYADSVKGRFTISKDNAKNTLYLQLNSLKTEDTAMYYCAQGVYGDTYSGSQGTQVTVSS
notes: as for B1
B17: mIL23R VHH40 (VHH)
VHH: QVQLQESGGGLVQPGGSLRLSCAASGFTFRLTAMRWVRQAPGKGLEWVSGIDSRGSTIYADSVKGRFTISKDNAKNTLYLQLNSLKSEDTAMYYCAQGVYGDTYSGSQGTQVTVSS
notes: as for B1
B18: mIL23R VHH45 (VHH)
VHH: QVQLQESGGGLVQPGGSLRLSCAASGFTFRLSAMRWVRQAPGKGLEWVSGIDSRGSTIYADSVEGRFTISKDNAKNTLYLQLNSLKTEDTAMYYCAQGVYGDTYSGSQGTQVTVSS
notes: as for B1
B19: mIL23R VHH2 (VHH)
VHH: QVQLQESGGGSVQAGGSLTLSCTAPGFTFRLAAMRWVRQAPGKGLEWVSGIDSRGSTIYADSVKGRFTISKDNAKNTLYLQLNSLKTEDTAMYYCAQGVYGDTYSGSQGTQVTVSS
notes: as for B1
B20: mIL23R VHH28 (VHH)
VHH: QVQLQESGGGLVQPGGSLRLSCAASGFTFRLTAMRWVRQAPGKGLEWVSGIDSRGSTIYADSVKGRFTISRDNAKNTLYLQLNSLKTEDAAMYYCAQGVYGDTYSGSQGTQVTVSS
notes: as for B1
B21: mIL23R VHH44 (VHH)
VHH: QVQLQESGGGLVQPGGSLRLSCAASGFTFRLSAMRWVRQAPGKGFEWVSGIDSRGSTIYADSVKGRFTISKDNAKNTLYLQLNSLKTEDTAMYYCAQGVYGDTYSGSQGTQVTVSS
notes: as for B1
B22: mIL23R VHH31 (VHH)
VHH: QVQLQESGGGLVQPGGSLRLSCAASGFTFRLTAMRWVRQAPGKGLEWVSGIDSRGSTIYADSVKGRFTISRDNAKNTLYLQLNSLKTEDTAMYYCAQGVYGDTYSGSQGTQVTVSS
notes: as for B1
B23: mIL23R VHH23 (VHH)
VHH: QVQLQESGGGLVQPGGSLRLSCAASGFNFRLYAMRWVRQAPGKGVEWVSGIDSGGSTIYADSVKGRFTISKDNAKNTLYLQLNSLKTEDTAMYYCAQGVYGDTYSGSQGTQVTVSS
notes: as for B1
B24: mIL23R VHH17 (VHH)
VHH: QVQLQESGGGSVQAGGSLRLSCAASGFTFRLTAMRWVRQAPGKGLEWVSGIDSRGSTIYADSVKGRFTISKDNAKNTLYLQLNSLKTEDTAMYYCAQGVYGDTYSGSQGTQVTVSS
notes: as for B1
B25: mIL23R VHH9 (VHH)
VHH: QVQLQESGGGLVQPGGSLRLSCATSGFTFRLTAMRWVRQAPGKGVEWVSGIDSAGSTIYADSVKGRFTISKDNAKNTLYLQMNSLKTEDTAMYYCAQGVYGDTYSGSQGTQVTVSS
notes: as for B1
B26: mIL23R VHH46 (VHH)
VHH: QVQLQESGGGLVQPGGSLRLSCAASGFTFRLSAMRWVRQAPGKGLEWVSGIDSRGSTIYADSVKGRFTISKDDAKNTLYLQLNSLKTEDTAMYYCAQGVYGDTYSGSQGTQVTVSS
notes: as for B1
B27: mIL23R VHH42 (VHH)
VHH: QVQLQESGGGLVQPGGSLRLSCAASGFTFSNYAMRWVRQAPGKGLEWVSGIDSRGSTIYADSVKGRFTISKDNAKNTLYLQLNSLKTEDTAMYYCAQGVYGDTYSGSQGTQVTVSS
notes: as for B1
B28: mIL23R VHH30 (VHH)
VHH: QVQLQESGGGLVQPGGSLRLSCAASGFTFRLTAMRWVRQAPGKGLEWVSGIDSRGSTIYADSVKGRFTISKDNAKNTLYLQLNSLKTEDTAMYYCAQGVYGDTYSGSLGTQVTVSS
notes: as for B1
B29: mIL23R VHH34 (VHH)
VHH: QVQLQESGGGLVQPGGSLRLSCAASGFTFRLTAMRWVRQAPGKGLEWVSGIDSRGSTIYADSVKGRFTISKDNAKNTLYLQLNSLKTEDTAMYYCAQGVYGDTHSGSQGTQVTVSS
notes: as for B1
B30: mIL23R VHH4 (VHH)
VHH: QVQLQESGGGSVQAGGSLRLSCAASGYTYSNNCMGWFRQAPGKDRERIANIYTGGGRTTYADSVKGRFTISQDSAKSTVYLQMNSLKPEDTAMYYCAAGSCGSARSEYSYWGQGTQVTVSS
notes: as for B1

Key:
[1] = target: T1, extracellular domain of mouse IL23R (mIL23R ECD) (mouse, UniProt Q8K4B4 24-374); experiment: periplasmic extract ELISA (PE-ELISA) of phage clones, colorimetric
T1 construct: The immunogen was an ECD-human IgG1 hinge-Fc fusion
T1 sequence: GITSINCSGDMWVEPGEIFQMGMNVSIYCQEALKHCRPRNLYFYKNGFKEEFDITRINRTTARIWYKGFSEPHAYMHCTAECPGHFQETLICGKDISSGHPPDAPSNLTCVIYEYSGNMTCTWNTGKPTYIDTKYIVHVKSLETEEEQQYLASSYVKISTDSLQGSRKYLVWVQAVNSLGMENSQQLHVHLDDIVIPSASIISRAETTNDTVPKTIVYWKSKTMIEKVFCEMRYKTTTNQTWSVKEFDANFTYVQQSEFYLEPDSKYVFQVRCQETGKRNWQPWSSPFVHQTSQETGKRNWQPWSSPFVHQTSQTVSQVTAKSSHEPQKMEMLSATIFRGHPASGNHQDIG
Summary of the method: (§1)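 VHH domains came from camels immunized in sequence with human and mouse receptor extracellular domain–human IgG1 hinge–Fc fusion proteins. Blood RNA was transcribed, and the approximately 400 bp VHH fragment was cloned in frame with a his-tag into a phagemid in E. coli. The phage library went through multiple rounds of biopanning on the human or mouse extracellular domain. Individual clones were tested by periplasmic extract ELISA in 96-well plates, with selective binding read colorimetrically.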

[2] = target: T2, extracellular domain of human IL12RB1 (hIL12Rb1 ECD) (human, UniProt P42701 24-545); experiment: as above
T2 construct: The immunogen was a fusion of the ECD with the human IgG1 hinge and Fc; also called IL12Rβ1; CD212
Summary of the method: as §1

Row | Binder | binding result [1] | binding result [2]
1 | B1 | binds | 
2 | B2 | binds | 
3 | B3 | binds | 
4 | B4 | binds | 
5 | B5 | binds | 
6 | B6 | binds | 
7 | B7 |  | binds
8 | B8 |  | binds
9 | B9 |  | binds
10 | B10 |  | binds
11 | B11 |  | binds
12 | B12 | binds | 
13 | B13 |  | binds
14 | B14 | binds | 
15 | B15 | binds | 
16 | B16 | binds | 
17 | B17 | binds | 
18 | B18 | binds | 
19 | B19 | binds | 
20 | B20 | binds | 
21 | B21 | binds | 
22 | B22 | binds | 
23 | B23 | binds | 
24 | B24 | binds | 
25 | B25 | binds | 
26 | B26 | binds | 
27 | B27 | binds | 
28 | B28 | binds | 
29 | B29 | binds | 
30 | B30 | binds | 
